Article PMC5079630 (2016)

T1: STAT1 N domain (aminoterminal domain), recombinant
T1 chain: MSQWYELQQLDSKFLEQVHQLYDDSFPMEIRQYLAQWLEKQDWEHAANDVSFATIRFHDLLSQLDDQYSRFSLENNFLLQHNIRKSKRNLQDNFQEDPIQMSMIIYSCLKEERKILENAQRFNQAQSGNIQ


Columns and labels:
Assay in all cases: AUC
[1] = target: STAT2 N domain (aminoterminal domain), recombinant, mEGFP-tagged (human)
[2] = target: STAT2 N domain LL81,82AA, recombinant (human)
[3] = target: T1, STAT1 N domain (aminoterminal domain), …

Chain of STAT2 N domain (aminoterminal domain), recombinant, mEGFP-tagged (human) (chain, as listed by the source): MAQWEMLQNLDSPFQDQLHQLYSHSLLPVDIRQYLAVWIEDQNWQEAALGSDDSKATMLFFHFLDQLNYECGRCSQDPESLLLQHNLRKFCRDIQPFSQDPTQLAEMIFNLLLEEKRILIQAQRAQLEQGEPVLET
Chain of STAT2 N domain LL81,82AA, recombinant (human) (chain, as listed by the source): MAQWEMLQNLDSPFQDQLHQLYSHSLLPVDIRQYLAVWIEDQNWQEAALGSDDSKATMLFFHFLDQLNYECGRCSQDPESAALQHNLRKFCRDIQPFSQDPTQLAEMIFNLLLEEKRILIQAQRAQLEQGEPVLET

| Kd [1] [µM] | Binder | further results |
| --- | --- | --- |
| < 0.01 | STAT1 N domain (aminoterminal domain), recombinant (domain or fragment, limits not printed (S1 Text/ref. 22); N domain taken up to the start of the conventional STAT1 core fragment (132-713); Strep-tag omitted limits not given; N domain taken up to the start of the core region (P52630 region from 138), homologous to STAT1 1-131; mEGFP and Strep-tag omitted) MSQWYELQQLDSKFLEQVHQLYDDSFPMEIRQYLAQWLEKQDWEHAANDVSFATIRFHDLLSQLDDQYSRFSLENNFLLQHNIRKSKRNLQDNFQEDPIQMSMIIYSCLKEERKILENAQRFNQAQSGNIQ |  |
|  | STAT1 N domain (aminoterminal domain), recombinant (domain or fragment, limits not printed (S1 Text/ref. 22); N domain taken up to the start of the conventional STAT1 core fragment (132-713); Strep-tag omitted limits not given; same convention as m2; tags omitted) MSQWYELQQLDSKFLEQVHQLYDDSFPMEIRQYLAQWLEKQDWEHAANDVSFATIRFHDLLSQLDDQYSRFSLENNFLLQHNIRKSKRNLQDNFQEDPIQMSMIIYSCLKEERKILENAQRFNQAQSGNIQ | Kd [2]: 5500 µM |
|  | STAT1 N domain (aminoterminal domain), recombinant (domain or fragment, limits not printed (S1 Text/ref. 22); N domain taken up to the start of the conventional STAT1 core fragment (132-713); Strep-tag omitted limits not printed (S1 Text/ref. 22); N domain taken up to the start of the conventional STAT1 core fragment (132-713); Strep-tag omitted) MSQWYELQQLDSKFLEQVHQLYDDSFPMEIRQYLAQWLEKQDWEHAANDVSFATIRFHDLLSQLDDQYSRFSLENNFLLQHNIRKSKRNLQDNFQEDPIQMSMIIYSCLKEERKILENAQRFNQAQSGNIQ | Kd [3]: 16.6 µM |
| 705 | STAT2 N domain (aminoterminal domain), recombinant, mEGFP-tagged (domain or fragment, limits not given; N domain taken up to the start of the core region (P52630 region from 138), homologous to STAT1 1-131; mEGFP and Strep-tag omitted limits not given; N domain taken up to the start of the core region (P52630 region from 138), homologous to STAT1 1-131; mEGFP and Strep-tag omitted) not shown |  |
